Experimental findings from the nanobody polyreactivity screen of Harvey et al. (2022) are described below.

A short description of the series: yeast display, Sf9 membrane polyspecificity reagent, FACS + sequencing; frameworks hold sequencing errors. In a few lines: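 Using colony PCR, genes from sorted yeast display clones were amplified, then sequenced on MiSeq at 2 × 250 and filtered by CDR length. The clones had been stained with 10% biotinylated, detergent-solubilized Sf9 membrane reagent for 1 hour at 4 °C and sorted by FACS into low and high (top ~1%) gates on anti-HA and streptavidin fluorescence. Polyreactivity labels come from the gate of origin.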
As to “QDQLVESGGGLVQAGGSLRLSCAASGRIFPWYTMGWYRQAPGKERELVAVISSGGRTHYADSVKGRFTISRDNAKNTVYLLMNSLKPEDTAVYYCAAESRYQRYDYWGQGTKVTVSS”, the “polyreactivity (PSR sort gate)” value was “high polyreactivity”. The entry for “QDQLVESGGGLVQAGGSLRLSCAASGRIFRRNTQGWSRQAPGKERELVAAITSSGGSTFADSVKGRFTISRDNAKNTVYLQMNSLKPEDTAVYYCATYVAYHRGYRTYDHWGQGTQVTVSS” is “low polyreactivity”; for “QDQLVESGGGLVQAGGSLRLSCAASGRIFSKYAKGWYRQAPGKERELVAAITTGGGSTSYADSVKGRFTISRDNAKITVYLQMNSLKPEDTAVYYCAADRLSYGFGMYYWGQGTQVTVSS” it is “low polyreactivity”; for “QDQLVESGGGLVQAGGSLRLSCAASGRIFYRYAMGWYRQAPGKERELVATISRSGGSTNYADSVKGRFTISRDNAKKTVYLQLNSLKPEDTAVYYCAAQYTYRFPYPGYATTHDYWGQGTQVTVSS” it is “high polyreactivity”. The value for “QDQLVESGGGLVQAGGSLRLSCAASGRIIRAYAMGWYRQAPGKERELVAAISGGSNTNYADSVKGRFTISRDNAKNTVYLQMNSLKPEDTAVYYCAADAGYWESLWYPYGFYWGQGTQVTVSS” was “low polyreactivity”.

Consider “QDQLVESGGGLVQAGGSLRLSCAASGRILRRNVMGWYRQAPGKESELVATITNSGGRTYYADSVKGRFTISRDNEKNTVYLLMNSLQPEDTAVYYCAKYGYGYTGYGYWGQGTQVTVSS”, for which the “polyreactivity (PSR sort gate)” value is reported as “high polyreactivity”. For “QDQLVESGGGLVQAGGSLRLSCAASGRISTYTMGWYRQAPGKERELVATISTDASTNYADSVKGRFTISRDNAKNTVYLQMNSLRPEDTAVYYCAAVIVNQDYDYWGQGTQVTVSS”, the “polyreactivity (PSR sort gate)” value was “low polyreactivity”.

With “QDQLVESGGGLVQAGGSLRLSCAASGRNFRYYTMGWYRQAPGKERELVAAITRRGGITNYADSVKGRFTISRDNGKNTVYLQMNSLKPEDTAVYYCAAKYVSQCYDYWGQGTQVTVSS”, the “polyreactivity (PSR sort gate)” value is “high polyreactivity”.

Regarding “QDQLVESGGGLVQAGGSLRLSCAASGRNFSYYAMGWYRQAPGKERELVAAIRWSGGRTYYADSVKGRFTISRDNAKNTVYLQMNSLKPEDTAVYYCAAEGAYRLAYDSWGQGTQVTVSS”, the “polyreactivity (PSR sort gate)” value is reported as “high polyreactivity”. As to “QDQLVESGGGLVQAGGSLRLSCAASGRTFAAYAMGWYRQAPGKERELVATIRRGGTTDYADSVKGRFTISRDNAKNTVYLQMNSLKPEDTAVYYCNARSRTYRTRRYDYWGQGTQVTVSS”, the “polyreactivity (PSR sort gate)” value is recorded as “high polyreactivity”. For the sequence “QDQLVESGGGLVQAGGSLRLSCAASGRTFAYNAMVWYRQAPGKERELVADITSGGSTYYADSVKGRFTISRDNPKNTVNLQMNSLKPEDTAVYDCADVRQGSFTTMDYWGQGTQVTVSS”, the “polyreactivity (PSR sort gate)” value was “high polyreactivity”. The entry for “QDQLVESGGGLVQAGGSLRLSCAASGRTFFGYAMGWYRQAPGKERELVAAITTSGGSTYYADSVKGRFTISRDNAKNTVYLQMNSLKPEDTAVYYCAARAYYGYYYWGQGTQVTVSS” is “low polyreactivity”; for “QDQLVESGGGLVQAGGSLRLSCAASGRTFIRNAMGWYRPAPGKERELVAAISRSGGRTYYADSVKGRFTISRDNAKNTVYLQMNSLKPEDTAVYYCAAGSYQRYAFDYWGQGTQVTVSS” it is “high polyreactivity”. Take “QDQLVESGGGLVQAGGSLRLSCAASGRTFIRNSMGWNRQAPGKERELVAAISGTGGSTYYADSVKGRFTISRDYAKNTVYLQMNSLKPEDTAVYYCAADRPAPGYDFWGQVTQVTVSS”: the “polyreactivity (PSR sort gate)” value is reported as “low polyreactivity”. As for “QDQLVESGGGLVQAGGSLRLSCAASGRTFLRYTMGWYRQAPGTETELVADITNGGTRTYYADSVKGRFTFSRDYAKNTVYLQMNRLKPEDTAVYYCGARVRYTANYDYWGQGTQVTVSS”, the “polyreactivity (PSR sort gate)” value was “high polyreactivity”. For the sequence “QDQLVESGGGLVQAGGSLRLSCAASGRTFPPYGMGWSRQAPGKERELVAAISKSSGSTNYADSVKGRFTISRDNAKNTVYLQMNSLKPEDTAVYYFNVDLYRWSKLAGAYRMDYWGQGTQVTVSS”, the “polyreactivity (PSR sort gate)” value is “low polyreactivity”. In the case of “QDQLVESGGGLVQAGGSLRLSCAASGRTFRRNAMGWYRPAPGKERELVAAITSSGGSTYYADSVKGRFTISRDNAKNTVYLQMNSLKPEDTAVYYCNAVGKPQSSQYYYWGQGTQVTVSS”, the “polyreactivity (PSR sort gate)” value is “high polyreactivity”. The entry for “QDQLVESGGGLVQAGGSLRLSCAASGRTFRVYAMGWYRQAPGKERELVATITSSGGSTYYADSVKGRFTISRDNAKNTVYLQMNCLKPEDTAVYYCAADGGSASIHDYWGQGTQVTVSS” is “low polyreactivity”; for “QDQLVESGGGLVQAGGSLRLSCAASGRTFRWNAMGWYRQAPGKERELVAAITKSGGSTYYADSVKGRFTISRDNAKNTVYLQMNSLKPEDTAVYYCAAPRYSTFTYDYWGQGTQVTVSS” it is “low polyreactivity”; for “QDQLVESGGGLVQAGGSLRLSCAASGRTFSYNTMGWYRQAPGKERELVAAITRSGGSTYYADSVKGRFTISRDNAKNTVYLQINSLKPEDTAVYYCNARSWYWGQGTQVTVSS” it is “high polyreactivity”. The value for “QDQLVESGGGLVQAGGSLRLSCAASGRTFTRNAMGWYRQAPGKERELVAAISISGGRPYYADSVKGRFTISRDNAKNTVYLQMNSLKPEDTAVYYWAKVTTSKYDYDYWGQGTQVTVSS” was “high polyreactivity”.

As for “QDQLVESGGGLVQAGGSLRLSCAASGRTFWVYAMGWYRQAPGKERELVAAIRRGGITNYADSVKGRFTISRDNAKNTVYLQMNSLKPEDTAVYYCATDNYGYLTRYYYWGQGTQVTVSS”, the “polyreactivity (PSR sort gate)” value is listed as “low polyreactivity”. For “QDQLVESGGGLVQAGGSLRLSCAASGRTFYDNVMGWYRQAPGKERELVAAISSGASTNYADSVKGRFTISRDNAKNSVYFQMNSLKPEDSAVYYCATNGGGGWAYEYWGQGTQVTVSS”, the “polyreactivity (PSR sort gate)” value is given as “low polyreactivity”. For the sequence “QDQLVESGGGLVQAGGSLRLSCAASGRTFYQYAMGWYRQAPGKERELVAAITFRGGSTNYADSVKGRFTISRDNAKNTVYLQMNSLKPEDTAVYYCAATVYGTVYKGRSQYEYGYWGQGTQVTVSS”, the “polyreactivity (PSR sort gate)” value is “high polyreactivity”. With “QDQLVESGGGLVQAGGSLRLSCAASGSIFADYAMGWYRQAPGKERELVAVISRRGGTTYYADSVKGRFTISRDNAKNTVYLQMNSLKPEDTAVYYCAARRSFNEYDSWGHGTQVTVSS”, the “polyreactivity (PSR sort gate)” value is listed as “high polyreactivity”. Regarding “QDQLVESGGGLVQAGGSLRLSCAASGSIFDDYAMGWYRQAPRKERELVASISWSGGRTYYADSVKGRFTISRDNAKNTVYLQMNSLKPEDTAVYYCAAALWTGYSWGQGTQVTVSS”, the “polyreactivity (PSR sort gate)” value is listed as “low polyreactivity”. Regarding “QDQLVESGGGLVQAGGSLRLSCAASGSIFGVNDMGWYRQGAGKERELVAGINQGGGSTYYADSVKGRFTISRDNAKNSVYLQMNSLKPEETAVYYCAAVRYVLRSPARYGYWGQGTQVTVSS”, the “polyreactivity (PSR sort gate)” value was “low polyreactivity”. On to “QDQLVESGGGLVQAGGSLRLSCAASGSIFKHNDMGWYRQAPGKERELVAAISRSGGSTYYAHSVKGRFTISRDNAKNTVYLLMNSLKPEDTAVYYCNAGRRTARYGYWGQGTQVTVSS”, for which the “polyreactivity (PSR sort gate)” value is “high polyreactivity”. As for “QDQLVESGGGLVQAGGSLRLSCAASGSIFKINAMGWYRQATGKERELVATITWSTGTTYYADSVKGRFTISRDNAKNTVYLQMNSLKPEDTAVYYCATDGDSTKLDYWGQGTQVTVSS”, the “polyreactivity (PSR sort gate)” value is given as “low polyreactivity”. As for “QDQLVESGGGLVQAGGSLRLSCAASGSIFLYNAMGWYRQAPGKERELVADITSAGRTYYADSVKGRFTISRDNAKNTVYLQMNSLKPEDTAVYDCNKDYHYHFSWYGYWGQGTQVTVSS”, the “polyreactivity (PSR sort gate)” value was “low polyreactivity”.

Regarding “QDQLVESGGGLVQAGGSLRLSCAASGSIFSGYAMGWYRQPPGKERELVAAISRRGTSTYYADSVKGRFTISRDNAKNTVYLQMNSLKPEDTAFYYCAATYGGRQSYGGFDYWGQGTQVTVSS”, the “polyreactivity (PSR sort gate)” value is “high polyreactivity”. As to “QDQLVESGGGLVQAGGSLRLSCAASGSIFSNNAMGWYRQAPGKERELVATITFSGGNTYYADSVKGRFTISRDNAKNTVYLQMNSLKPEDTAVYYCNADRYPVGTAREYDSWGQGTQVTVSS”, the “polyreactivity (PSR sort gate)” value is on record as “low polyreactivity”. With “QDQLVESGGGLVQAGGSLRLSCAASGSIFTSYAMGWYRQAPGKERELVAAITGGDSTNYADSVKGRFTISRDNAKNTVYLQMNSLKPEDTAVYYCNAADPNYFDRDTHYYWGQGTQVTVSS”, the “polyreactivity (PSR sort gate)” value is given as “low polyreactivity”. As to “QDQLVESGGGLVQAGGSLRLSCAASGSILGHYDMGWYRPAPGKERELVAAISWSGGSTYYADSVKGRFTISRDNAKNTVYLQMNSLKPEDTAVYYCNAAAILYTSAGSLYWYDYWGQGTQVTVSS”, the “polyreactivity (PSR sort gate)” value is given as “low polyreactivity”. “QDQLVESGGGLVQAGGSLRLSCAASGSISSKNAMGCYRQAPGKEREFVAVISGTGGSTYYSDSVKGRFTISRDNAKNTVYLQMNRLKPEDTAVYYCAAAGSSIVSYGYSWTYGYWGQGTQVTVSS”: the “polyreactivity (PSR sort gate)” value is recorded as “low polyreactivity”.

In the case of “QDQLVESGGGLVQAGGSLRLSCAASGSNFAVYAMGWSRQAPGKERELVAAISYRGARTYYADSVKGRFTISRDNAKNTVYLQMNSLKPEDTAVYYCAAQGVTSPGVDSWGQGTQVTVSS”, the “polyreactivity (PSR sort gate)” value is listed as “high polyreactivity”. Regarding “QDQLVESGGGLVQAGGSLRLSCAASGSTFEYYAMGWYRQAPGKERELVAAISSGPSTTYADSVKGRFTISRDNAKNTVYLQMNSLKPEDTAVYYCARRDGTTQALFGYDYWGQGTQVTVSS”, the “polyreactivity (PSR sort gate)” value is given as “low polyreactivity”. On to “QDQLVESGGGLVQAGGSLRLSCAASGSTFEYYAMGWYRQAPGKERELVAAITRRGGSTYYADSVKGRFTISRDNAKNTVYLQMNSLKPEDTAVYYCAAVPTQKSQRTHDYCGQGTQVTVSS”, for which the “polyreactivity (PSR sort gate)” value is listed as “low polyreactivity”. With “QDQLVESGGGLVQAGGSLRLSCAASGSTFGYYAMGWYRKAPGKERELVAAITSGASTNYADSVKGRFTISRDNAKNTVYLQMNSLKPEDTAVSYCAAGFQTRTPLNEFDYWGQGTQVTVSS”, the “polyreactivity (PSR sort gate)” value is “low polyreactivity”. As for “QDQLVESGGGLVQAGGSLRLSCAASGSTFGYYAMGWYRQAPGKERELVAAISWRGGTYYADSVKGRFTISRDNAKNTVYLQMNSLKPEDTAVYYCAADDYIVSRYRYGVRYGYWGQGTQVTVSS”, the “polyreactivity (PSR sort gate)” value was “high polyreactivity”. The value for “QDQLVESGGGLVQAGGSLRLSCAASGSTFGYYVMGWYRQAPGKERELVAGISSSGGSTYYADSVKGRFTISRDNAKNTVYLQMNSLKPEDTAVYYCAAVRGTGTRRYDYWGQGTQVTVSS” was “high polyreactivity”.
